Measurements taken from paper PMC8874921, “Evolved DNA Duplex Readers for Strand-Asymmetrically Modified 5-Hydroxymethylcytosine/5-Methylcytosine CpG Dyads”.

Biological target: wt MeCP2 MBD (Homo sapiens, UniProt P51608 90-181)
Test: EMSA; EMSA; unlabeled oligo-dA/dT duplex (o2968/o2969) listed as binding trap; buffer, salt, pH and temperature not shown in the material
Conditions: protein: recombinant, tags: N-terminal FLAG-MBP-FactorXa-TEV, C-terminal 7xHis, label: 6-FAM 5' strand 1

Sequence of wt MeCP2 MBD (P51608 90-181): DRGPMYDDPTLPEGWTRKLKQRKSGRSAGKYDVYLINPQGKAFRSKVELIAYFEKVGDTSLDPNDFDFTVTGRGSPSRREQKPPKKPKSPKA

Binder	Kd (blunt)	Kd
hmC/mC oligo-dA/dT (EMSA) (dsDNA, 5hmC at C12 of strand 1 (o3115); 5mC at C12 of strand 2 (o2909)) DNA 1: AAAAAAAAAAACGAAAAAAAAAAA DNA 2: TTTTTTTTTTTCGTTTTTTTTTTT	47.4 ± 12.4 nM	
C/mC oligo-dA/dT (EMSA) (dsDNA, 5mC at C12 of strand 1 (o2967); strand 2 unmodified (o2904)) DNA 1: AAAAAAAAAAACGAAAAAAAAAAA DNA 2: TTTTTTTTTTTCGTTTTTTTTTTT	43.8 ± 3.64 nM	
hmC/hmC oligo-dA/dT (EMSA) (dsDNA, 5hmC at C12 of strand 1 (o3115); 5hmC at C12 of strand 2 (o3112)) DNA 1: AAAAAAAAAAACGAAAAAAAAAAA DNA 2: TTTTTTTTTTTCGTTTTTTTTTTT		198 ± 39.1 nM
mC/mC oligo-dA/dT (EMSA) (dsDNA, 5mC at C12 of strand 1 (o2967); 5mC at C12 of strand 2 (o2909)) DNA 1: AAAAAAAAAAACGAAAAAAAAAAA DNA 2: TTTTTTTTTTTCGTTTTTTTTTTT	3.9 ± 0.636 nM	
hmC/C oligo-dA/dT (EMSA) (dsDNA, 5hmC at C12 of strand 1 (o3115); strand 2 unmodified (o2904)) DNA 1: AAAAAAAAAAACGAAAAAAAAAAA DNA 2: TTTTTTTTTTTCGTTTTTTTTTTT	211 ± 19.5 nM	
